Source: patent publication US6890900B2, “Methods for treating or preventing diseases of the oral cavity” (Campina B.V., priority 2001, dated 2005)

Assays:
[1] = tested on: Pseudomonas aeruginosa ATCC #27853; experiment: LF/GMP assay, viable plate count (pour plate) of broth culture; format: cell-based; set-up: key to MIBC: NCF: No Effective Concentration Found; settings: for Colony Counts: viable plate count
Protocol: Bacterial strains used in this study were Pseudomonas aeruginosa ATCC #27853, Streptococcus mutans ATCC #33535, Streptococcus pyogenes ATCC #19615, and Actinobacillus haemophilus ATCC #43717 and an oral swab from a healthy adult. Bacteria were grown on blood/BHT media (Brain Heart Infusion Agar with protease peptone, sodium chloride, glucose, di-sodium phosphate, and agar, Oxoid, Hampshire England, Sheep's Blood) in the presence of 5% CO2 at 35° C. Bacteria were harvested by swabbing inoculated growth plates after 24 hours and diluting the colonies in 9 ml of deionized water (DI water) until a suspension of 0.5 McFarland Turbidity Standard was reached using the nephelometer (McFarland Turbidity Meter). The 0.5 McFarland value is approximately equivalent to 1.0×10^8 organisms. One ml of the appropriate bacterial dilution was taken using a sterile pipette and introduced into 8 ml of sterilized BHI broth. (Preparation of BHI broth: 37 g+1,000 ml DI water, Difco Laboratories. By pipette, 9 ml of broth was placed into medium test tubes as means of a control and 8 ml test tubes were prepared for the concentration tests).
This solution was filtered through a 0.45 μm filter. […] Example for calculating 2,500 ppm dilution (1,000 ppm=0.1%): [formula] [formula] [formula] […]
One mL of each bacterial strain, plus one mL of sialic acid solution (1,000 ppm) were inoculated into test tubes filled with 8 mL of BHI broth. Each test tube was vortexed, incubated for 24 hours at 35° C. with 5% CO2, and then pour plated in BHI agar to obtain a plate count.
This technique was used to determine the density of living (viable) cells in inoculated broth cultures. It involves plating a bacterial sample and counting the resulting colonies after incubation. A serial dilution of the original broth was taken prior to plating. The serial dilution is necessary to reduce the density of organisms in order to create countable plates. Only plates containing between 25 and 250 colonies are considered countable. Cell densities are traditionally recorded as CFU (colony forming unit)/ml. By convention, when 1.0 ml is inoculated onto a plate, the dilution factor (DF) is recorded as tenfold greater. Formula: [formula]
The assays required the use of a pour plate technique. The pour plate technique adds a step to the conventional serial dilution. The 1 ml of dilution is added to a warm emulsion of dilute nutrient (BHI) agar to produce an agar overlay in the petri plates. After incubation, the bacterial growth covers the entire plate but individual cellular movement has been restricted by the soft agar overlay. Each colony formed is assumed to have originated from a single CFU. The plates were gently mixed, inverted, and incubated for 18-24 hour at 35° C. […]

[2] = tested on: oral culture (oral swab from a healthy adult, oral flora); experiment: as above; format: cell-based, Streptococcus salivaris; set-up: key to MIBC: NCF: No Effective Concentration Found; settings: 35° C.; for Colony Counts: viable plate count
Protocol: Bacterial strains used in this study were Pseudomonas aeruginosa ATCC #27853, Streptococcus mutans ATCC #33535, Streptococcus pyogenes ATCC #19615, and Actinobacillus haemophilus ATCC #43717 and an oral swab from a healthy adult. Bacteria were grown on blood/BHT media (Brain Heart Infusion Agar with protease peptone, sodium chloride, glucose, di-sodium phosphate, and agar, Oxoid, Hampshire England, Sheep's Blood) in the presence of 5% CO2 at 35° C. […] The 0.5 McFarland value is approximately equivalent to 1.0×10^8 organisms. One ml of the appropriate bacterial dilution was taken using a sterile pipette and introduced into 8 ml of sterilized BHI broth. […] By pipette, 9 ml of broth was placed into medium test tubes as means of a control and 8 ml test tubes were prepared for the concentration tests). […] This solution was filtered through a 0.45 μm filter. […] Example for calculating 2,500 ppm dilution (1,000 ppm=0.1%): [formula] [formula] [formula] To study the kinetics of LF/GMP binding, each strain of bacteria was taken separately with a sterile pipette and placed into an 8 ml BHI broth test tube, vortexed, and incubated in the presence of 1 ml of LF or GMP for 18-24 hours at 35° C. with 5% CO2. In the combination procedure, 0.5 ml of both LF and […] were taken as 1 ml inoculations. This technique was used to determine the density of living (viable) cells in inoculated broth cultures. It involves plating a bacterial sample and counting the resulting colonies after incubation. A serial dilution of the original broth was taken prior to plating. The serial dilution is necessary to reduce the density of organisms in order to create countable plates. Only plates containing between 25 and 250 colonies are considered countable. Cell densities are traditionally recorded as CFU (colony forming unit)/ml. […] Formula: [formula] The assays required the use of a pour plate technique. The pour plate technique adds a step to the conventional serial dilution. The 1 ml of dilution is added to a warm emulsion of dilute nutrient (BHI) agar to produce an agar overlay in the petri plates. After incubation, the bacterial growth covers the entire plate but individual cellular movement has been restricted by the soft agar overlay. Each colony formed is assumed to have originated from a single CFU. The plates were gently mixed, inverted, and incubated for 18-24 hour at 35° C. There is a mixture of microorganisms obtained in “normal oral flora.” Testing a swab taken from a healthy mouth cavity aided in the identification of the most common mouth flora. Experiments were conducted with the mouth culture to determine the antimicrobial effects of LF and GMP. Oral cultures were grown on BHI agar with added sheep's blood for 24 hours at 35° C. 5% CO2. […] These plates were incubated for another 24 hours. Here, isolated colonies were taken and were streaked on a BHI/Blood plate for growth of a pure culture. Streaking a plate produces isolated growth of microbial species in a mixed culture sample. Once isolated, pure cultures can be tested for species identification. The isolated colonies were Gram-stained to distinguish between Gram-positive and Gram-negative cells. The Gram stain is a differential stain in which a decolorization step occurs between the application of two basic stains. The next step was a catalase test to identify the organisms that produce the enzyme catalase. It was used to differentiate members of the catalase-positive Micrococcaceae and Staphylococci from the catalase-negative Streptococcaceae. Hydrogen peroxide was added to the bacteria and observed for a reaction (evidence of bubbles being formed). In the oral culture, three isolated colonies were tested for identification from a swabbed mouth cavity. […] This negative-catalase reaction was a confirmation of a streptococcus species. The API 20 Strep test was done on all three pure cultures to identify each species. The numbers were the results of the API 20 test. […]

B1: LF: Bovine lactoferrin, iron-binding glycoprotein purified from milk, provided by DMV International (protein, UniProt P24627 20-708, looked up)
Lactotransferrin: APRKNVRWCTISQPEWFKCRRWQWRMKKLGAPSITCVRRAFALECIRAIAEKKADAVTLDGGMVFEAGRDPYKLRPVAAEIYGTKESPQTHYYAVAVVKKGSNFQLDQLQGRKSCHTGLGRSAGWIIPMGILRPYLSWTESLEPLQGAVAKFFSASCVPCIDRQAYPNLCQLCKGEGENQCACSSREPYFGYSGAFKCLQDGAGDVAFVKETTVFENLPEKADRDQYELLCLNNSRAPVDAFKECHLAQVPSHAVVARSVDGKEDLIWKLLSKAQEKFGKNKSRSFQLFGSPPGQRDLLFKDSALGFLRIPSKVDSALYLGSRYLTTLKNLRETAEEVKARYTRVVWCAVGPEEQKKCQQWSQQSGQNVTCATASTTDDCIVLVLKGEADALNLDGGYIYTAGKCGLVPVLAENRKSSKHSSLDCVLRPTEGYLAVAVVKKANEGLTWNSLKDKKSCHTAVDRTAGWNIPMGLIVNQTGSCAFDEFFSQSCAPGADPKSRLCALCAGDDQGLDKCVPNSKEKYYGYTGAFRCLAEDVGDVAFVKNDTVWENTNGESTADWAKNLNREDFRLLCLDGTRKPVTEAQSCHLAVAPNHAVVSRSDRAAHVKQVLLHQQALFGKNGKNCPDKFCLFKSETKNLLFNDNTECLAKLGGRPTYEEYLGTEYVTAIANLKKCSTSPLLEACAFLTR
- Colony Counts ([1]; 50 ppm, 35° C., 24 h): 4.6 × 10^8
- Colony Counts ([1]; 100 ppm, 35° C., 24 h): 3.6 × 10^8
- Colony Counts ([1]; 250 ppm, 35° C., 24 h): 2.6 × 10^8
- Colony Counts ([1]; 1,000 ppm, 35° C., 24 h): 3.2 × 10^8
- Colony Counts ([1]; 3,000 ppm, 35° C., 24 h): 1.2 × 10^8
- Total Log Reduction ([1]; Lactoferrin/GMP 250/0 ppm (LF alone), 23° C. (room temperature)): 1 log
- Total Log Reduction ([1]; Lactoferrin/GMP 250/0 ppm (LF alone), 35° C.): 0 log
- Total Log Reduction ([1]; Lactoferrin/GMP 3,000/0 ppm (LF alone), 23° C. (room temperature)): 0 log
- Total Log Reduction ([1]; Lactoferrin/GMP 3,000/0 ppm (LF alone), 35° C.): 0 log
- # Log Reductions ([1]; at the MIBC, vs control, 35° C.): 0 log
- MIBC ([1]; single agent, 35° C., 24 h, 5% CO2): NCF
- Colony Counts ([2]; 50 ppm, 24 h): 4.8 × 10^8
- Colony Counts ([2]; 100 ppm, 24 h): 4.2 × 10^8
- Colony Counts ([2]; 250 ppm, 24 h): 4.3 × 10^8
- Colony Counts ([2]; 500 ppm, 24 h): 4.0 × 10^8
- Colony Counts ([2]; 1,000 ppm, 24 h): 3.9 × 10^8
- Colony Counts ([2]; 3,000 ppm, 24 h): 3.4 × 10^8
- Total Log Reduction ([2]; Lactoferrin/GMP 250/0 ppm (LF alone)): 0 log
- Total Log Reduction ([2]; Lactoferrin/GMP 3,000/0 ppm (LF alone)): 0 log
- # Log Reductions ([2]; at the MIBC, vs control): 0 log
- effect on growth (in words) ([2]; single agent, any tested concentration): not effected
- MIBC ([2]; single agent, 24 h, 5% CO2): NCF
